Test results from paper PMC9316690.

Columns and labels:
[1] = biological target: EFm1 D166Q, full-length chain (E. faecalis phage IME-EF1); test: crystal structure; EFm1_(D166Q) 15 mg/mL, sitting drop, 16 °C; 2.2 Å; phases by Se-Met SAD
[2] = biological target: C-terminal domain EFm1 166-237 aa (E. faecalis phage IME-EF1); test: crystal structure; EFm1_(166–237 aa) 10 mg/mL, sitting drop, 16 °C; 2.0 Å; eight monomers in the asymmetric unit

Substance	stoichiometry N (CTD fragments per full-length chain) [1]	stoichiometry N [2]
8 kDa C-terminal fragment of EFm1, translated from the alternative start codon M168 (domain or fragment)	3	–
C-terminal domain EFm1 166-237 aa (domain or fragment)	–	4
